Laboratory results published in publication PMC3097204.

Legend:
[1] = molecular target: mature SsTroA domain (residues 36–317) (Streptococcus suis serotype 2 (strain 05ZYH33)); experiment: AUC; sedimentation velocity profiles analysed with SEDFIT; 1 mg/ml protein in 20 mM Tris-HCl (pH 8.0), 50 mM NaCl; 50,000 rpm, 20°C; monomer and dimer
[2] = molecular target: mature SsTroA domain (residues 36–317) (Streptococcus suis serotype 2 (strain 05ZYH33)); experiment: SEC; analytical FPLC Superdex 200 profile of purified SsTroA

Substance: mature SsTroA domain (residues 36–317) (domain or fragment)
- percent of the total protein in the dimer peak [1]: 6.8%
- stoichiometry N [1]: 2
- stoichiometry N [2]: 2
